# Experimental data reported in the DeepSol protein solubility set.
# Test: soluble on expression in E. coli; label from the status in PepcDB or PDB records
row,Sequence,soluble on expression in E. coli
1,MEANKKAKPSYGDVISNLPNDLLCRILSYLSTKEAALTSILSKRWSNLLLSIPILDFDDSVLLKPQKGQRKNVFFKAFVDRLLSQRVETSSHVQRVSLKCRQGGVEPDCVIKWILTTVRDLGVLDLSLCIDFGIFHLPFNVFRSKTLVKLRIGTMIRLSQFPSDVVSPTLNSLVLDLVEFRDGDKVEFRQILLAFPSLQSLRVHESNKWKFWNGSASSRTLKSLVYRSDDDSSAPKPCVSFDTPSLVYLDYSDMVADKYENLKFDSLVEARLDLHLTAFQIMRKPNNIGIVSGDVTTLFKGIRNVKILCLSPDALEALYYRGEKIPMFNNLITLSLGSDKPHGSPFIFWKLLPSLLNNSLKLETLIIKGLVHYVAEGWEGLSPMTPMSRLCFSWDTVSDSLSSSAMKVLEISGYKGTWQELNQMKRFLGNLSRLEVVRVYHKAMDDKERINVMFDLFLLPKVSSECDIQVMKETA,soluble
2,MKKLIVDLDGTLTQANTSDYRNVLPRLDVIEQLREYHQLGFEIVISTARNMRTYEGNVGKINIHTLPIITEWLDKHQVPYDEILVGKPWCGHDGFYIDDRAVRPSEFASMNLEEIHQLFEKEKSCS,soluble
3,MTTARDIMNAGVTCVGEHETLTAAAQYMREHDIGALPICGDDDRLHGMLTDRDIVIKGLAAGLDPNTATAGELARDSIYYVDANASIQEMLNVMEEHQVRRVPVISEHRLVGIVTEADIARHLPEHAIVQFVKAICSPMALAS,soluble
4,PVMHPHGAPPNHRPWQMKDLQAIKQEVSQAAPGSPQFMQTIRLAVQQFDPTAKDLQDLLQYLCSSLVASLHHQQLDSLISEAETRGITSYNPLAGPLRVQANNPQQQGLRREYQQLWLAAFAALPGSAKDPSWA,soluble
5,MGSDKIHHHHHHMEQVDMGPAQAPPLFSGQLDARTRAASVDLHGCNVDYWVYEPVSVTAETRTMLVVHGFRGDHHGLLRVADQLPDMRLIMPDLPGFGSSDAFPDGGHSVRRYGQFISDFMAALGLGPDTVLLGHSFGSIVASHFAAANPGAVFPLILINPIAAPALEGPKGVMTKLAVIYYEASARLPRALGLYLLRSRLIVRVMSMAMAKTRDKQLLQFIHGQHNAYFSAFANRDSLLESFKASVGSNVSEVAPDLSLPVLLIAGEKDEIAMLPDQHKLQALLPDGTLEVIPGVGHLIHYETPQPAAGFIRRFLKDHPA,not soluble
6,MFPIKKRKAIKNNNINAAQIPKHIAIIMDGNGRWAKQKKMPRIKGHYEGMQTVRKITRYASDLGVKYLTLYAFSTENWSRPKDEVNYLMKLPGDFLNTFLPELIEKNVKVETIGFIDDLPDHTKKAVLEAKEKTKHNTGLTLVFALNYGGRKEIISAVQLIAERYKSGEISLDEISETHFNEYLFTANMPDPELLIRTSGEERLSNFLIWQCSYSEFVFIDEFWPDFNEESLAQCISIYQNRHRRFGGL,soluble
7,MKQTQRHDAIIELVKKQGYVSTEELVEHFSVSPQTIRRDLNDLAEQNMILRHHGGAALPSSSVNTPWHDRKATQTEEKERIARKVAAQIPNGSTLFIDIGTTPEAVAHALLGHSNLRIVTNNLNVANTLMAKEDFRIILAGGELRSRDGGIIGEATQDFIAQFRLDFGILGISGIDSDGSLLEFDYHEVRTKRAIIENSRHVMLVVDHSKFGRNAMVNMGSISMVDAVYTDTLPPPGVMQVLTENHIQLELCLEHHHHHH,soluble
8,MQGKIIKSLAGFYYVESEGQVYQTRARGNFRKRGETPYVGDIVDFSAEDNSEGYILAIHPRKNSLVRPPIVNIDQAVVIMSAKEPEFNSNLLDRFLILLEHKAIHPVVYISKMDLLDSPEEIKAIGRQYQAIGYDFVTSLEELLPLLADKITVFMGQTGVGKSTLLNRIAPELALEIGEISDSLGRGRHTTRAVSFYNTHGGKIADTPGFSSLDYDIANAEDLNEAFPELRRLSHECKFRSCTHTHEPKCAVKAALETGELWPVRYEHYLQFLSEIENRRETYKKVIKRK,not soluble
9,VQRCVIIQKDQHGFGFTVSGDRIVLVQSVRPGGAAMKAGVKEGDRIIKVNGTMVTNSSHLEVVKLIKSGAYVALTLLGSS,soluble
10,MSLLKISGKFFDEDNVDNLIVLRQSIKELADNGFRVGIVTGGGSTARRYIKLAREIGIGEAYLDLLGIWASRLNAYLVMFSLQDLAYMHVPQSLEEFIQDWSHGKVVVTGGFQPGQSTAAVAALVAEASSSKTLVVATNVDGVYEKDPRIYADVKLIPHLTTQDLRKILEGSQSVQAGTYELLDPLAIKIVERSKIRVIVMNYRKLNRIIDILKGEEVSSIIEPVEGHHHHHH,not soluble
11,MGSDKIHHHHHHMNQDGASPLSETAQPFLQVVGVHKRFTGVHALRGVSLTFERGQIYHLLGENGCGKSTLIKIISGAQPPDQGELVIEGVRHAQLSPLESLAAGIETVYQDLSLLPNMSVAENVALTAELAAHAGKLARTFDRRALARTAARALEAVGLPGSADFQATLIEQLPLATRQLVAIARAIASEAKFVIMDEPTTSLTQKEVDNLIAVLANLRAHGVTVLFVSHKLDECYAIGGEVIVLRDGQKMAQGPIAQFTKARLSELMTGRELSNERYREAGHAQDVVLELRGLTRAGQFSDVSLSLHGGEILGVTGLLDSGRNELARALAGVAPAHAGEVLLDGHAIALRTPSDAKRNRIGYVPEDRLNEGLFLDKPIRDNLITAMISSLRDRFGQIDRARAQALAQQTVKELQIATAGIDKPVQSLSGGNQQRVLIGRWLAIDPRVLILHGPTVGVDVGSRDVIYRIMQRLSQRGIGIILISDDLPELLQNCDRILMMKKGRVASEYRADALDEADLYHALLSEAA,not soluble
12,SLIFGKIDYINLLPLHIYLKKYPLPNGYKASMEYKKGVPSKLNKDLFYRRIDAAIISSIESARKKYKNLDLGICANKRVLSVLVEKNTSNAKDPSSATSNALAKVLKQDGKVIIGDKALKLYLKDPSKYIDLCAKWHEKTGLPFVFARFSCVQKKALYKQILKKFPKTKIKIPYYILQKYAKTRDLDVKDVRYYLDEVIYHKISTKEKTALKRFVKACKALNLA,soluble
13,MAEIHYLISDASKKVDVEAHVLRYWEEELELPIPRNDMGHRYYTDFHIRLFKQVKVLKEKGYQLKAIKTALAKSLQDGKVIIPSEVLEEDVIAALKETGIGEQDMKEQKGNENKNGEKRADEKVKDGQACEGGGEAGLTALDKDSVEALLAGEKMEQFQKVMNHIIGRAMEENSEKLSQDISYLVHDKLMKEMEYLMRVSDEREEERFKQLDEVIRAYQRDNQGRAEAAASVTGFPFFRFKKKKFGRNGNKL,not soluble
14,MGSDKIHHHHHHMRHTILFIIDGLPGGGAERVVITLAGEMAARGHQVTIASLQASLDYAIPAGVDYLLVEDRYRGPLRRQTEIRRRARQLDGALRRHFAGRRIDLAVSNLPKTDRIVAACPYLEQAWLCLHCAIQAGQLAERSGIRRWLKKRQLVRTYSGRKLITVCQALQRDVLDCGIRPARMEAIYNPFDLDWIRRRAAQPCPMDGEDFILHVGRFNHQKRHDRLLEAFKLSGYPGKLALLGQGGQAELSAIQVQAERLGVADRLVVAGFTDNPYAYMRAARALVLSSDYEGFGNVLVEALACGTPVASTNCPEGPAEILTGPLSIGLSELNGQALADAIKRVLASRPLAGPEQLAAFAQDAVVERYLALVNQ,not soluble
15,MFPQADEPERDTLPGQEEDPLPTGQEQPSITPIAGTEAQYIDIAEWYDSDSILYITDEGENSLVYIYNLLTGEKKSLFSSDDAVIKVTANSTHSQFAIQTVTQAGDAPVSIIDSQGELLMKLEDFGEDFSIFWSPYEEDKLIAVAYLPDWEQDLYLIDTSDKQVEMLDLDQSFVQWLDERTIVYLDWNGDSEGYYAPLYTFDLETEEVVLLHEEAIATLGFGDHVTLIIERPEQGAEVTTYQFWNGSEQLAEWSVPILRTYSEQWWIPFYDFDLNKRLFYAYKPNRTGDYFEYDGGFSFIAFDVDHGEETVLFESDEHVPFRLSPTGQRALFGPRLETVMDLPTGESNSLIE,not soluble
16,MSRLGYVMTKASAKNFKVYINGSARGYRNIIINGAKSWNPSPYLNTVTMGNDVKPNFTVSSSNTNKGSVLAVCNTTYYKSNKLIVKNEITLYKGFRSLSNNHKIETVAHEFGHGFGLGHVKTRNAIMLDKGFINKTKPQKLEHHHHHH,not soluble
17,MSLIAPVLKGKGVLITRAKEQASSLSRLIEEAGGVPIEVPLLSFIKTMDVYEEVGASIQSYEWIVFTSANAVRFFFNTWPRQELKKLPSIAAVGSSTQRELSRYGISVDLMPNEYVAESLVETMVKRLKPCRVLFPKGNLARPTVKVGLETNGFIVDEMTVYETKRPLEAKVMLCEAFQKHRIEIITFTSPSAVDHFVTLLDREFILHEHLLYAYIGPIAAARAKQRGLPVHIVAKTYTGEGLVNAICDFVKEDGEGHHHHHH,soluble
18,MPHPKLTPKCEAPPEKRLAHLEIRFKDRRHIIPPLFHNGWVGRNEDRTLLNDTIIEFYMCDWMRLEVFDEATRASSHVFHSFFLPKIKTCFKDFKENPPRRSELANHYNRFFRSKNDAETFLKKDILLIPVHLDKPKHWFLVIVHNPSGAVRRISDVNILDATNKVKSRRLSRRITGHVNCDENAGECRIIIMDSLVHSKKYREVIDKTHDSTFDHIRLWLLMSAAATDVDMFCTRFRKVVCQKLPQQKNSVDCGIFMMAFAEYFTKYNTAWQSLPTDALADLKMDDDIKSLLNSETPRQRLDELFQSLKA,not soluble
19,EHEKGQKLIKTMDQEIDEVAKIGKTIKKPKTVLFEVAALPDIYSFGNGTFLNEMIETIGAKNVLANEKGWLPVTEEAAIAAKPEVILTNVNYMKDPAKEILARKNWESVPAVQNKEVFEIDNMSSSLPNNHITKALKQMAKAVYPEEYKDLKDE,not soluble
20,MDEIAIDPSINQDMSASEIYRFEGTLYTLPFVTKNNDISWNKSRDEYKSECRTFPPLYKSLFDRQKCGKVRFSPPLSLEQNVNAHLKGSSSQHMTTILQGVEDAGYVFPDIDMLVTTEVLNTIAGSIFNQEKSWKLRAYVTQVQGKNMVIVCDDDFEHHQRISSTQSDFPIERTEALNFAHSICVRDGTRELNNSLHGSEVVVSTIKFREKSVKMIVIGEVDLVTGKNNKSLNTIVATGRTARASFGHNVESRVDSLDYLWSRCFWLGQRLCLVGMRSTEEAPVSSAYLYSLYPPTLKERKRTNYRVDVATTCVAQVMIRLREEAAKMPHANWIIEYTGRDKEFDPAFIKINVAPDTHSFLLVQEYWHIEKEAFESAEEQKKAEDQNVVEPEKIVRTFHQMKRLPGVRKSGTIAKQFQKIINSMSS,not soluble
21,GPGSMTVLRRMRLTFVGTGVSSAVPVIGHLTTDCACRDAIANPSGPNRRNNVSLLISLPFAEGKSGVEWHHVLIDCGKTFRSAYMRVLAPMRVQYVDALLITHGHADAMHCVEELCGMQAEAAARYAQSVSPSSLPSSAGRTLASAVVPRTLRRVPTFLTAPTLDQIAMVSPELVTQSFHIGAAPTTGTAYHSALAATADMTARSSSSAEVLSTVMDIFYMDDTKPQRMHVPFGPLSLAASAARGVNATDAASDLPFYSFPVEHGKGYISMAWVFGRGTAFKSRQTQQQQQGSCVVYISDVSHIPATSMAFLQDLVKIDVLVLDLLAEHGAPSASHYCADEAIPLVVALAPRRTYFVGMFCSLEHHRTNEAFARELAELKMRYRDELEVVVPGSSAPAVTDTDREKKLAFVNRVCSMELAYDGQELDMDA,not soluble
